{"source": "patent US5827666A", "about": "“Synthetic multiple tandem repeat mucin and mucin-like peptides, and uses thereof” (priority 1994, dated 1998)", "assay": "circular dichroism at 25-90° C.", "type": "physicochemical", "settings": "0.01M phosphate buffer pH 7.2", "data": [{"sequence": "TITPPQAMGPNLVLPDQKPPSRQSQTGSKVATQRPQTNESAPRSVAPTTVGPKRIGTGDR (TITPPQAMGPNLVLPDQKPPSRQSQTGSKVATQRPQTNESAPRSVAPTTVGPKRIGTGDR) [PRN60, 60 amino acid proline-rich domain of feline leukemia virus gp-70]", "values": [{"measurement": "decrease of CD intensity at 198 nm at 90° C. as compared to 25° C.", "result": 29, "unit": "%"}]}]}
